From patent US8802681B2, “Pharmaceutical compositions with attenuated release of phenolic opioids” (Signature Therapeutics, Inc., priority 2008, dated 2014)

Key:
[1] = Oral administration of Compound 3 and Compound 101 to rats, hydromorphone in plasma; assay type: in vivo, rat; settings: Compound 3 20 mg/kg, Compound 101 10 mg/kg
Method: Saline solutions of Compound 3 (which can be prepared as described in Example 12) and Compound 101 (prepared as described in Example 14) were dosed as indicated in Table 8.

[2] = Oral administration of Compound 4 and Compound 101 to rats, hydromorphone in plasma; assay type: in vivo, rat; settings: Compound 4 20 mg/kg, Compound 101 10 mg/kg
Method: Saline solutions of Compound 4 (which can be prepared as described in Example 13) and Compound 101 (prepared as described in Example 14) were dosed as indicated in Table 9.

trypsin = biological target: T1, trypsin (Bos taurus, UniProt P00760); experiment: Modified trypsin assay (in vitro IC50); assay type: biochemical; settings: trypsin inhibition
T1 sequence (P00760 24-246): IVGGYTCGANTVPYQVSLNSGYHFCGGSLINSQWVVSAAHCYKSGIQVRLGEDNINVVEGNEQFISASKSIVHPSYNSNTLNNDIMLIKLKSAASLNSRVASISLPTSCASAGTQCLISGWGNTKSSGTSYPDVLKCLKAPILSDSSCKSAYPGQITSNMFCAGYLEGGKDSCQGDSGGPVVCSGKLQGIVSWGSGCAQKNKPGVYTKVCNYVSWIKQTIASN

[3] = Oral administration of Compound 3 and SBTI to rats, hydromorphone in plasma; assay type: in vivo, rat; settings: Compound 3 20 mg/kg, SBTI 500 mg/kg
From the text: Dosing, sampling and analysis procedures were as described in Example 4.

[4] = Oral administration of Compound 1 and SBTI in the presence of ovalbumin to rats, hydromorphone in plasma; assay type: in vivo, rat; settings: Compound 1 20 mg/kg
Method: In an effort to understand the role of SBTI, ovalbumin was used as a non-trypsin inhibitor protein control. Albumin from chicken egg white (ovalbumin) (Catalog No. A7641, Grade VII, lyophilized powder, Sigma-Aldrich) was dissolved in saline.
At specified time points, blood samples were drawn, harvested for plasma via centrifugation at 5,400 rpm at 4° C. for 5 min, and 100 microliters (μl) plasma transferred from each sample into a fresh tube containing 1 μl of formic acid. The tubes were vortexed for 5-10 seconds, immediately placed in dry ice and then stored until analysis by HPLC/MS.

[5] = Oral administration of Compound 4 and SBTI to rats, hydromorphone in plasma; assay type: in vivo, rat; settings: Compound 4 20 mg/kg, SBTI 500 mg/kg
Method: Dosing, sampling and analysis procedures were as described in Example 4, except that Compound 4 without inhibitor was administered to 7 rats.

[6] = Oral administration of Compound 2 and SBTI to rats, hydromorphone in plasma; assay type: in vivo, rat; settings: Compound 2 20 mg/kg, SBTI 500 mg/kg
Method: When SBTI was dosed, it was administered 5 min prior to Compound 4. At specified time points, blood samples were drawn, processed and analyzed as described in Example 2.

[7] = Oral administration of Compound 1 and SBTI to rats, hydromorphone in blood; assay type: in vivo, rat
Method: At specified time points, blood samples were drawn, quenched into methanol, centrifuged at 14,000 rpm @ 4° C., and stored at −80° C. until analysis by high performance liquid chromatography/mass spectrometry (HPLC/MS).

What does the source list for `CCOC(=O)N1CCN(C(=O)[C@H](CCCNC(=N)N)NS(=O)(=O)c2ccc3ccccc3c2)CC1` [Compound 101, (S)-ethyl 4-(5-guanidino-2-(naphthalene-2-sulfonamido)pentanoyl)piperazine-1-carboxylate]?
Effect of Compound 101 on Compound 3's release of hydromorphone [1]: attenuates Compound 3's ability to release hydromorphone, both with respect to suppressing Cmax and delaying Tmax; Effect of Compound 101 on Compound 4's release of hydromorphone [2]: attenuates Compound 4's ability to release hydromorphone, both with respect to suppressing Cmax and delaying Tmax

B1: SBTI: trypsin inhibitor from Glycine max (soybean), Catalog No. 93620, ~10,000 units per mg, Sigma-Aldrich (protein, UniProt P01070 25-205, looked up)
Trypsin inhibitor A: DFVLDNEGNPLENGGTYYILSDITAFGGIRAAPTGNERCPLTVVQSRNELDKGIGTIISSPYRIRFIAEGHPLSLKFDSFAVIMLCVGIPTEWSVVEDLPEGPAVKIGENKDAMDGWFRLERVSDDEFNNYKLVFCPQQAEDDKCGDIGISIDHDDGTRRLVVSKNKPLVVQFQKLDKESL
What does the source list for B1?
IC50 (trypsin): 270 nM; Effect of SBTI on Compound 3's release of hydromorphone [3]: attenuates Compound 3's ability to release hydromorphone, both with respect to suppressing Cmax and delaying Tmax; Effect of SBTI on Compound 1's release of hydromorphone ([4]; SBTI 500 mg/kg in the presence of 500 mg/kg ovalbumin): suppresses Cmax and delays Tmax; Effect of SBTI on Compound 4's release of hydromorphone [5]: attenuates Compound 4's ability to release hydromorphone, at least with respect to delaying Tmax; Effect of SBTI on Compound 2's release of hydromorphone [6]: attenuates Compound 2's ability to release hydromorphone, both with respect to suppressing Cmax and delaying Tmax; Effect of SBTI on Compound 1's release of hydromorphone ([7]; Compound 1 20 mg/kg, SBTI 10-1000 mg/kg): attenuates Compound 1's ability to release hydromorphone in a dose-dependent manner; Attenuation of hydromorphone release from Compound 1 ([7]; at higher SBTI concentrations): approximately 100%

B2: ovalbumin: Albumin from chicken egg white, Catalog No. A7641, Grade VII, Sigma-Aldrich; non-trypsin inhibitor protein control (protein, UniProt P01012 2-386, looked up)
Ovalbumin: GSIGAASMEFCFDVFKELKVHHANENIFYCPIAIMSALAMVYLGAKDSTRTQINKVVRFDKLPGFGDSIEAQCGTSVNVHSSLRDILNQITKPNDVYSFSLASRLYAEERYPILPEYLQCVKELYRGGLEPINFQTAADQARELINSWVESQTNGIIRNVLQPSSVDSQTAMVLVNAIVFKGLWEKAFKDEDTQAMPFRVTEQESKPVQMMYQIGLFRVASMASEKMKILELPFASGTMSMLVLLPDEVSGLEQLESIINFEKLTEWTSSNVMEERKIKVYLPRMKMEEKYNLTSVLMAMGITDVFSSSANLSGISSAESLKISQAVHAAHAEINEAGREVVGSAEAGVDAASVSEEFRADHPFLFCIKHIATNAVLFFGRCVSP
Which “Effect of ovalbumin on Compound 1's release of hydromorphone” value ([4]; OVA 20-1000 mg/kg) does the source give for B2 here?
The value was “does not significantly affect Compound 1's ability to release hydromorphone”.
